Measured values as given in PMC9729208, “Structural basis for the non-self RNA-activated protease activity of the type III-E CRISPR nuclease-protease Craspase”.

Assays:
[1] = target: gRAMP (Candidatus Scalindua brodae, UniProt A0A0B0EGF3 1-1717); test: cryo-EM; Complex assembly at 1:1.2 (complex:target RNA), 5 mM EDTA, on ice 30 min; SEC in 20 mM Tris-HCl pH 8.0, 150 mM NaCl, 1 mM DTT; details: protein: recombinant; tags: N-terminal His6; single strand; 35 nt modelled in 7Y80 and 7Y84
[2] = target: gRAMP;TPR-CHAT (Candidatus Scalindua brodae;Candidatus …, UniProt A0A0B0EGF3;A0A0B0EKL4 1-1717;1-716, |); test: cryo-EM (2.6 A); Complex assembly at 1:1.2 (complex:target RNA), 5 mM EDTA, on ice 30 min; SEC in 20 mM Tris-HCl pH 8.0, 150 mM NaCl, 1 mM DTT; details: protein: recombinant;recombinant; tags: N-terminal His6;C-terminal Strep II; copies: 1;1; single strand; 35 nt modelled in 7Y80 and 7Y84

B1: crRNA (ssRNA)
RNA: GACUUAAUGUCACGGUACCCAAUUUUCUGCCCCGGACUCCACGGCUGUUACUAGAG
[1]
  binding result: binds
[2]
  binding result: binds
